Laboratory results from PMC12312269, “Directed evolution of α-ketoisovalerate decarboxylase for improved isobutanol and 3-methyl-1-butanol production in cyanobacteria” (Biotechnology for Biofuels and Bioproducts, 2025).

Target: the molecule itself
Assay: crystal structure; hanging-drop vapour diffusion, 16-17.8% PEG6000 or PEG3350, 0.1 M MES pH 6.0, 20 °C; space group C2, four molecules (two dimers) in the asymmetric unit

B1: α-ketoisovalerate decarboxylase Kivd^S286T (enzyme, Lactococcus lactis)
chain: MYTVGDYLLDRLHELGIEEIFGVPGDYNLQFLDQIISHKDMKWVGNANELNASYMADGYARTKKAAAFLTTFGVGELSAVNGLAGSYAENLPVVEIVGSPTSKVQNEGKFVHHTLADGDFKHFMKMHEPVTAARTLLTAENATVEIDRVLSALLKERKPVYINLPVDVAAAKAEKPSLPLKKENSTSNTSDQEILNKIQESLKNAKKPIVITGHEIISFGLEKTVTQFISKTKLPITTLNFGKSSVDEALPSFLGIYNGTLSEPNLKEFVESADFILMLGVKLTDTSTGAFTHHLNENKMISLNIDEGKIFNERIQNFDFESLISSLLDLSEIEYKGKYIDKKQEDFVPSNALLSQDRLWQAVENLTQSNETIVAEQGTSFFGASSIFLKSKSHFIGQPLWGSIGYTFPAALGSQIADKESRHLLFIGDGSLQLTVQELGLAIREKINPICFIINNDGYTVEREIHGPNQSYNDIPMWNYSKLPESFGATEDRVVSKIVRTENEFVSVMKEAQADPNRMYWIELILAKEGAPKVLKKMGKLFAEQNKS
notes: α-ketoisovalerate decarboxylase (Kivd) from Lactococcus lactis with the substitution S286T; the structure section names residues up to 548; Stored with 2.5 mM MgSO4 and 0.1 mM ThDP; also called ST; not shown: H6-Ub, N-terminal, cleaved
- stoichiometry N: 4
